The labels stand for the following.
T1: human Bfl-1 (residues 1-151) (human, UniProt Q16548 1-151)
T1 construct: range 1-151
T1 sequence (looked up): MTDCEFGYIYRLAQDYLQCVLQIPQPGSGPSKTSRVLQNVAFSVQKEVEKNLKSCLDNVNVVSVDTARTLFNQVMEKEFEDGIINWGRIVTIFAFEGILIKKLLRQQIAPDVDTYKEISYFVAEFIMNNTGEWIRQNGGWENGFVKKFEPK

B1: srt.X1 (peptide)
peptide: Ac-QTLIWYGASLRRYADEFAKQRER-NH2
notes: synthetic solution peptide; also called srt.X01
B2: srt.X7 (peptide)
peptide: Ac-QPLIWFGAQLRRGADEFAAQRER-NH2
notes: synthetic solution peptide; also called srt.X07
B3: srt.MF02 (peptide)
peptide: Ac-RWIDQIAQFLRRIGDHIEKYIER-NH2
notes: synthetic solution peptide; also called MF2
B4: srt.MF06 (peptide)
peptide: Ac-RRVDEIAQILRRIGDNVTTYIER-NH2
notes: synthetic solution peptide; also called MF6
B5: srt.M1 (peptide)
peptide: Ac-RSELEVVQELVRIGDIVVAYFER-NH2
notes: synthetic solution peptide; also called vM1
B6: srt.M9 (peptide)
peptide: Ac-RSQYEVIQELIRIGDIVLAYFER-NH2
notes: synthetic solution peptide; also called vM9

From patent US20200262914A1 (MIT, published 2020) come the findings set out here.

A value given as a limit tells only on which side of the number the result lay.

As a reminder, the Ki is the dissociation constant of the complex between target and ligand, obtained from inhibition or displacement.

The target in the first assay is T1, human Bfl-1 (residues 1-151). Kind of assay: reported affinity; yeast cell-surface measurement presumed.
For GQRVVHIAAGLRRTGDQLEAYG [F4], the Kd came out at 14 nM. Molecule GRRVVQIAAGLRRAGDQLEKYG [F10] came in with a Kd of 3.2 nM.

The target in the next assay is T2, human Bcl-xL (residues 1-209) (human, UniProt Q07817 1-209).
T2 construct: range 1-209
T2 sequence (Q07817 1-209 limits assumed): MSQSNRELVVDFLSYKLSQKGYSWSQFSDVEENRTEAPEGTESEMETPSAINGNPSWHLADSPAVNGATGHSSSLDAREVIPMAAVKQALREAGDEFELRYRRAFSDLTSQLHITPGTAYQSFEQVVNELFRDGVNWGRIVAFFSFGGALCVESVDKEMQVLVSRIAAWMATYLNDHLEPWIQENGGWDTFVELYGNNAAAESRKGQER
Kind of assay: competition FP vs fluoresceinated Bim BH3, solution.
From the text: (§1) We used the cell-surface experiments to select six peptides, for which we determined solution Ki values using a competition fluorescence polarization (FP) assay (FIG. 3, panel d).
For B1, the Ki was found to be 1.32 nM.

As for Ac-QWLRWVIAELIRIADEFHAQYER-NH2 (synthetic solution peptide) [srt.MX01], the Ki is 21 nM. Consider B2, for which the affinity corresponds to a Ki of 3.7 nM.

Molecule B3 had an inhibition constant Ki of 1000 nM.

For the molecule Ac-QWLRDVVAELARIADEFHAQYER-NH2 (synthetic solution peptide) [srt.MX05], the inhibition constant Ki stood at 20 nM.

Molecule Ac-QRIIWIAAELRRAADELDKQIER-NH2 (synthetic solution peptide) [srt.XF02] showed a Ki of 37 nM. The same measure, in the same setting: next, Ac-QRIIWIAAELRRAADQLDAQIER-NH2 (synthetic solution peptide) [srt.XF03]: 120 nM.

The target of another assay is T1, human Bfl-1 (residues 1-151). Described as above.
From the text: as §1
As to Ac-QRVVHIAAGLRRTGDQLEAYGER-NH2 [srt.F4], the Ki is above 4000 nM.

On to B4, for which the affinity, expressed as Ki, was 19 nM. The same measure, in the same setting: under Ac-QWAREIGAQLRRMADDLNAQYER-NH2 [Puma] stands 4.8 nM; under B3, 6.6 nM; under Ac-QRIIWIAAELRRAADELDKQIER-NH2 (synthetic solution peptide) [srt.XF02], 10 nM. On the same count and under the same terms, next, Ac-QRIIWIAAELRRAADQLDAQIER-NH2 (synthetic solution peptide) [srt.XF03]: 22 nM; Ac-RRVVQIAAGLRRAGDQLEKYGER-NH2 [srt.F10]: 300 nM.

For the next assay, the target named is T3, human Mcl-1 (residues 172-327) (human, UniProt Q07820 172-327).
T3 construct: range 172-327
T3 sequence (Q07820 172-327 limits assumed): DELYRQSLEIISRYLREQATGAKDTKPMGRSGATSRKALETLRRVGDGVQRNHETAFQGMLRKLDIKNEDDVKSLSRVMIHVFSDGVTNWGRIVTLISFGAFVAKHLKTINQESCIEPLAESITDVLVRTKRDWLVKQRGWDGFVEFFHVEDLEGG
Described as above.
From the text: as §1
Ac-QWLRWVIAELIRIADEFHAQYER-NH2 (synthetic solution peptide) [srt.MX01]: the inhibitory constant (Ki) was 11 nM. B5: the affinity corresponds to a Ki of 2.4 nM. Same read-out and setting: under B4 stands 5.7 nM; under Ac-QWAREIGAQLRRMADDLNAQYER-NH2 [Puma], 1.69 nM. The same measure, in the same setting: next, B6: 0.6 nM; B3: 9 nM; Ac-QWLRDVVAELARIADEFHAQYER-NH2 (synthetic solution peptide) [srt.MX05]: 100 nM.

The next assay concerns the target T2, human Bcl-xL (residues 1-209). Kind of assay: yeast display, sparse titration, apparent KD.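 Also: designs displayed on the yeast cell surface, binding of soluble target protein measured at four concentrations spanning nanomolar to micromolar, apparent KD estimated from this sparse titration.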
Method: (§2) We measured binding of the designs to 1, 10, 100 or 1000 nM of Bcl-xL, Mcl-1 and Bfl-1 using yeast cell-surface display.
For the molecule GQSLIWFGASLRRGADEFAAQR [X6], the Kd was below 100 nM. The same measure, in the same setting: under GQPLIWFGASLRRGADEFAKQR [X3] stands below 100 nM; under GQTLIWFGASLRRGADEFAAQR [X11], below 100 nM; under GQPLIWFGAQLRRGADEFAAQR [X7], below 100 nM. The same measure, in the same setting: next, GQTAIWYGASLRRAADEFAKQR [X5]: below 100 nM; GQTLIWYGAQLRRYADDFAKQR [X9]: below 100 nM. In the case of GQSMIWYGASLRRAADEFAKQR [X8], the Kd is below 100 nM.

In the case of GQRLIWYGAQLRRYADDFAKQR [X10], the Kd is below 100 nM.

GQGLIWYGAQLRRVADDFAKQR [X12]: the Kd was below 100 nM.

For another assay, the target named is T1, human Bfl-1 (residues 1-151). Kind of assay: yeast display, sparse titration, apparent KD.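 Also: designs displayed on the yeast cell surface, binding of soluble target protein measured at four concentrations spanning nanomolar to micromolar, apparent KD estimated from this sparse titration.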
Method: as §2
For GQRVVQIAAGLRRTGDQLEKYG [F6], the Kd is below 100 nM.

For GQRVVHIAQGLRRTGDQLEAQG [F5], the Kd is below 100 nM. On the same count and under the same terms, next, GRRVVQIAQGLRRAGDQLEKQG [F12]: below 100 nM; GQRVVHIAAGLRRTGDQLEAYG [F4]: below 100 nM; GQRVVQIAQGLRRAGDQLEKYG [F11]: below 100 nM.

In the case of GRRVVQIAAGLRRAGDQLEKYG [F10], the Kd was below 100 nM.

Turning to GQRVVQIAQGLRRTGDQLEKQG [F7], the Kd is below 100 nM.

As for GRRVVQIAAGLRRTGDQLEKQG [F8], the Kd was below 100 nM. Same read-out and setting: under GRRVVHIAAGLRRTGDQLEAQG [F3] stands below 100 nM; under GRRVRHIAQGLRRAGDQLDAYG [F1], below 100 nM.

With GRRVRHIAQGLRRAGDQLDKYG [F9], the Kd was below 100 nM. Same read-out and setting: under GQRVRHIAQGLRRTGDQLDAYG [F2] stands below 100 nM.

A further assay addresses T2, human Bcl-xL (residues 1-209). Kind of assay: solution binding assays (competition FP).
With B1, the “fold specificity for target over off-targets” value is above 1000 fold. Same read-out and setting: under B2 stands above 1000 fold.

A further assay addresses T1, human Bfl-1 (residues 1-151). Kind of assay: competition FP, solution.
From the text: as §1
Regarding B4, the “fold tighter Ki than to Bcl-xL” value is above 100 fold.

As for B3, the “fold tighter Ki than to Bcl-xL” value is above 100 fold.

In a further assay the target is T3, human Mcl-1 (residues 172-327). Kind of assay: competition FP, solution.
From the text: as §1
Take B4: the “fold tighter Ki than to Bcl-xL” value is above 100 fold.

Regarding B3, the “fold tighter Ki than to Bcl-xL” value is above 100 fold.

For the next assay, the target named is T2, human Bcl-xL (residues 1-209). In words: yeast surface display.
Take GRRIDEIAQILRRIGDHIEKYI [MF01]: the binding result was “binds”.

As for GRRIDEIAQILRRIGDHVEKYI [MF05], the binding result is on record as “binds”. GRWIDQIAQFLRRIGDHIEKYI (also called MF2) [MF02]: the binding result is recorded as “binds”.

Take GRRVDEIAQILRRIGDNIEEYI [MF03]: the binding result was “binds”. On the same count and under the same terms, under GRRVDEIAQILRRIGDNINEYI [MF04] stands “binds”; under GRRVDEIAQILRRIGDQIEEYI [MF07], “binds”.

The target of another assay is T1, human Bfl-1 (residues 1-151). In words: yeast surface display.
As for GRRIDEIAQILRRIGDHIEKYI [MF01], the binding result is “binds”.

GRRIDEIAQILRRIGDHVEKYI [MF05]: the binding result is recorded as “binds”. Same read-out and setting: next, GRRVDEIAQILRRIGDNVTTYI (also called MF6) [MF06]: “binds”. Regarding GRWIDQIAQFLRRIGDHIEKYI (also called MF2) [MF02], the binding result is recorded as “binds”. On to GRRVDEIAQILRRIGDNIEEYI [MF03], for which the binding result is listed as “binds”.

Turning to GRRVDEIAQILRRIGDNINEYI [MF04], the binding result was “binds”. On to GRRVDEIAQILRRIGDQIEEYI [MF07], for which the binding result is “binds”.

In the next assay the target is T3, human Mcl-1 (residues 172-327). Kind of assay: yeast surface display.
As to GRRIDEIAQILRRIGDHIEKYI [MF01], the binding result is “binds”. Same read-out and setting: next, GRRIDEIAQILRRIGDHVEKYI [MF05]: “binds”. As for GRRVDEIAQILRRIGDNVTTYI (also called MF6) [MF06], the binding result is given as “binds”. The same measure, in the same setting: under GRWIDQIAQFLRRIGDHIEKYI (also called MF2) [MF02] stands “binds”; under GRRVDEIAQILRRIGDNIEEYI [MF03], “binds”; under GRRVDEIAQILRRIGDNINEYI [MF04], “binds”.

Take GRRVDEIAQILRRIGDQIEEYI [MF07]: the binding result is on record as “binds”.
